What was measured:
CPN present in the paste = target: T1, CPN present in the paste (Homo sapiens, UniProt P15169); assay: Effect of CP inhibitors on C-terminal lysine truncation in dissolved, ethanol-treated IV-1 paste (IEF); type: biochemical
T1 construct: Cohn IV-1 precipitate is usually derived after ethanol fractionation of plasma; from tissue; host or cells: Cohn IV-1 paste (ethanol precipitate of plasma)
T1 sequence (P15169 21-458): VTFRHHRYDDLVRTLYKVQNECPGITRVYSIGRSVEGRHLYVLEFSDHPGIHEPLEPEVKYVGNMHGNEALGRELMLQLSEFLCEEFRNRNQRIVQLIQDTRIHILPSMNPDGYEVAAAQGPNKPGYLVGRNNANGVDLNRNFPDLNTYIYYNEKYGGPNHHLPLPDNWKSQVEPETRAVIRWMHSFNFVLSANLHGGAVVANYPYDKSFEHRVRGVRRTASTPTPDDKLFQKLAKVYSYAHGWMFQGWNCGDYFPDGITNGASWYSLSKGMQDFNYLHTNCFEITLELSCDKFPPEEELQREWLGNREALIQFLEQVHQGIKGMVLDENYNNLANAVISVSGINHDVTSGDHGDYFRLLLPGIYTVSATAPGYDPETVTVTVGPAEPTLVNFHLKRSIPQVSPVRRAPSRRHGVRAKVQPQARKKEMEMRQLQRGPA
T1 sequence (P22792 22-545 partner): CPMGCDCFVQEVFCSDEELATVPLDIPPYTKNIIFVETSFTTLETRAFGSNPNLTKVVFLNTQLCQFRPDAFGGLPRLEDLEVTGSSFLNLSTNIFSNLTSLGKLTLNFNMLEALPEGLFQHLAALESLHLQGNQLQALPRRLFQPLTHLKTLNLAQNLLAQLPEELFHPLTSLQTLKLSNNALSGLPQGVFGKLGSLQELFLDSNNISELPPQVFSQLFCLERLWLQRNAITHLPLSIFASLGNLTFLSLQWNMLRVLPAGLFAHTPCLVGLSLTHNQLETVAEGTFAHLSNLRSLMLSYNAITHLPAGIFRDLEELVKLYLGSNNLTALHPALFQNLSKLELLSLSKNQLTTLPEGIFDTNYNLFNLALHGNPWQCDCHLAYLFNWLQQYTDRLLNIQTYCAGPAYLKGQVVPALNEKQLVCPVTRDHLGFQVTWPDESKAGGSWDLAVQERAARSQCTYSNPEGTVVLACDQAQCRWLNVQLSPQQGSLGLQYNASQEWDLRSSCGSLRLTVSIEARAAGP
Procedure: (§1) Cohn IV-1 paste was dissolved in 2.6 volumes of 10 mM Tris-buffer at pH 8.8 and incubated for 30 min at 22° C. The suspension was made 40% in ethanol (by addition of 2.4 volumes of ethanol), stirred for a further 60 min, diluted with the same Tris-buffer to 10% ethanol and extracted for a further 6 h.
The following inhibitors were added in parallel during extraction and dilution with Tris-buffer: 100 mM 6-aminocaproic acid, 10 μM or 1 nM 2-mercaptomethyl-3-guanidinoethylthiopropanoic acid (a more specific inhibitor of CPN). The samples were characterized by high resolution isoelectric focusing.
(§2) For high resolution isoelectric focusing a new hybrid IEF method using IPG-Immobiline gels (GE Healthcare Bio-Sciences, pI 4.2-4.9, Uppsala, Sweden) was developed which is similar to that described by Weidinger^54. Samples were diluted with water to 0.5 mg A1PI/mL and 5 mM DTE was added. Samples (20 μl) were applied close to the cathode on the pre-focused gel and focused for 150 min (5000 Vh). For paste extracts focusing time was extended to 420 min. Gels were stained with Coomassie Brilliant Blue G-250 (BioRad, Hercules, USA) as described by Neuhoff^55. Blotting and immunostaining were done with a rabbit anti-A1PI antibody (Rabbit Anti-Human Alpha-1-Antitrypsin, #A0012, DakoCytomation, Glostrup, Denmark).

[1] = Percent C-terminal Lys truncated (des-Lys) A1PI in A1PI products; type: physicochemical, human; details: commercial product
Procedure: (§3) ARALAST® (Alpha1-Proteinase Inhibitor (Human)), Prolastin PROLASTIN® (Alpha1-Proteinase Inhibitor (Human)), and ZEMAIRA® (Alpha1-Proteinase Inhibitor (Human)) were analyzed by high-resolution IEF and high-performance size-exclusion chromatography (HP-SEC). Preparative separated isoforms from IEF were further purified by chromatography and subjected to mass spectrometry for sequence analyses, peptide mapping, and glycosylation analysis. Deamidation was quantified by enzymatic isoaspartate detection. Multiple sequence alignments and structural bioinformatics analyses were performed.

[2] = HP-SEC aggregate content of A1PI products; type: physicochemical
Procedure: as §3

CPN = target: T2, CPN (Homo sapiens, UniProt P15169); assay: CPN-catalysed removal of C-terminal lysine from A1PI products, released Lys by HPLC; type: biochemical; design: purchased Elastin Company; details: for Ethanol concentration at which linear increase of Lys removal starts: incubation with CPN, 10 min
T2 sequence (P15169 21-458): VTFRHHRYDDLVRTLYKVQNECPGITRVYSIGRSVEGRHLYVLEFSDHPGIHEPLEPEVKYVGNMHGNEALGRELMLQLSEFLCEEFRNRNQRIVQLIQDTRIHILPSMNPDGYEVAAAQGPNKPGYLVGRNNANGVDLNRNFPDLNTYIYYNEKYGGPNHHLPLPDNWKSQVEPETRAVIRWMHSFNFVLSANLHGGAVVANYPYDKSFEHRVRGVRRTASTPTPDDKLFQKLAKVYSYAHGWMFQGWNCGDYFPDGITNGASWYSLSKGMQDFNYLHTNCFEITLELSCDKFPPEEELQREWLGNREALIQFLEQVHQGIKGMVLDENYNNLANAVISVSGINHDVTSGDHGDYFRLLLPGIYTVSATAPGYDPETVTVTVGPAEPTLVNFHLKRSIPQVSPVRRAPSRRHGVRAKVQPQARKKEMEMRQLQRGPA
T2 sequence (P22792 22-545 partner): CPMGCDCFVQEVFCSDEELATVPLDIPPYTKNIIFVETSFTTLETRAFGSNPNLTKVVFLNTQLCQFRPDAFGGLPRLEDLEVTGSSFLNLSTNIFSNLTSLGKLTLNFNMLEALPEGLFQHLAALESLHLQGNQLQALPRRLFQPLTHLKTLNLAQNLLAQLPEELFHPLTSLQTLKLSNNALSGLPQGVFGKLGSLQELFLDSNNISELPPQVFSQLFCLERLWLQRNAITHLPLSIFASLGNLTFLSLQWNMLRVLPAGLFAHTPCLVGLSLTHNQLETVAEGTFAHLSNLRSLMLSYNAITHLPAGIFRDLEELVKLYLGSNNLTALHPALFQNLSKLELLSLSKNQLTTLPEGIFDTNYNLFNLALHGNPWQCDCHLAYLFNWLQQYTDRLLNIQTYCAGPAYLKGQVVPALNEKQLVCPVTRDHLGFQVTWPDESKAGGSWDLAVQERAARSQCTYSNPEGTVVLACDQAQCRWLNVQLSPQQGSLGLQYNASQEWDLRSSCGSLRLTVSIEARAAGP
Procedure: The cleaved C-terminal lysine of A1PI was determined using automated orthophtalicdialdehyd (OPA) pre-column derivatization and high-performance liquid chromatography. The derivatization reagent was prepared by dissolving 100 mg of OPA in 2.5 mL of methanol by short ultrasonication, adding 23 mL of deoxygenated sodium borate buffer (0.2 mol/L, pH 9.0), 100 μl of 2-mercaptoethanol and 100 μl of Brij 35 as described^53. The system used was an ASTED HPLC system (Gilson, Paris) with Shimadzu RF-A fluorescence detector and a C-18 Chromolith ODS 4.7*100 mm column. A mixture of 50 mM KH2PO4, acetonitrile and methanol (ratio 50:24:26) was used as mobile phase and ornithine was used as internal standard.
To 30 μl 0.5 mM A1PI (using ARALAST® (Alpha1-Proteinase Inhibitor (Human)) or PROLASTIN® (Alpha1-Proteinase Inhibitor (Human))) 10 μl water or ethanol (different concentrations) was added. Afterwards 10 μl CPN (500 U/L) was added and after a 10 minutes incubation interval the reaction was stopped by adding 50 μl internal standard in 0.25 M HCl. The cleaved lysine was quantified as described above.

A1PI [3] = assay: Incubation of purified non-truncated A1PI with carboxypeptidases, analysis by IEF; type: biochemical, human; details: for Lys truncation of A1PI by carboxypeptidase: A1PI in temporary contact with 40% ethanol, then diluted to 10% ethanol; for C-terminal lys removal from A1PI by carboxypeptidase: in the presence of only 10% ethanol
Procedure: A1PI solutions were incubated with different CPs. Temporary exposure to 40% ethanol was achieved by diluting the A1PI preparation (38 μM) with 96% ethanol. The precipitate formed was kept 30 min at −20° C. and a further 30 min at +4° C., before it was diluted with TRIS-HCl buffer (pH 8.8) to a final concentration of 10% ethanol. Concomitantly, CPs were added with the TRIS buffer and the reaction mixture containing 10 μM A1PI was then incubated at 37° C. for 60 min. Before IEF analysis dithioerythritol (DTE) was added to a final concentration of 5 mM. In addition, the incubation with CPs was done without ethanol or at 10% ethanol. Furthermore, we ran two concentration rows with either CPN (270-1 mU/ml) or CPM (250-10 mU/ml) after temporary exposure of A1PI to 40% ethanol (CPN units were tested against Hip-Arg).
as §2

A1PI [4] = assay: C-terminal Lys truncation of A1PI in dissolved Cohn IV-1 paste (IEF); type: biochemical, human; details: presence of only 10% ethanol; CPB added, CPN as present in the paste
Procedure: as §1
IV-1 paste was dissolved in 20.6 volumes of 10 mM Tris-buffer at pH 8.8 and incubated during 30 min at 22° C. The suspension was made 10% in ethanol (by addition of 2.4 volumes of ethanol) and stirred for a further 6 h at 22° C. and pH 8.8.
as §2

NCCCCCC(=O)O [6-amino caproic acid]
Inhibition of Lys truncation induced by the procedure 40=>10% EtOH (CPN present in the paste; dissolved IV-1 paste, pH 8.8, 6 h): could be inhibited
Inhibition of lysine removal from A1PI (CPN present in the paste; inhibitor at 100 mM): completely inhibited

ZEMAIRA: Alpha1-Proteinase Inhibitor (Human), approved plasma-derived A1PI concentrate
Percent of A1PI C-terminal truncation as compared to total A1PI protein [1]: 6%

PROLASTIN: Alpha1-Proteinase Inhibitor (Human), approved plasma-derived A1PI concentrate, purified from fraction IV-1
Aggregate content [2]: approximately 30%
Lys removed by CPN (CPN; absence of ethanol): very small amounts
Ethanol concentration at which linear increase of Lys removal starts (CPN): 5 % ethanol

ARALAST: Alpha1-Proteinase Inhibitor (Human), approved plasma-derived A1PI concentrate, made from Cohn IV-1+IV-4 paste
Ethanol concentration at which linear increase of Lys removal starts (CPN): 10 % ethanol

B1: CPM: carboxypeptidase M, EC 3.4.17.12, recombinant, expressed in P. pastoris (protein, UniProt P14384 18-423, looked up)
Carboxypeptidase M: LDFNYHRQEGMEAFLKTVAQNYSSVTHLHSIGKSVKGRNLWVLVVGRFPKEHRIGIPEFKYVANMHGDETVGRELLLHLIDYLVTSDGKDPEITNLINSTRIHIMPSMNPDGFEAVKKPDCYYSIGRENYNQYDLNRNFPDAFEYNNVSRQPETVAVMKWLKTETFVLSANLHGGALVASYPFDNGVQATGALYSRSLTPDDDVFQYLAHTYASRNPNMKKGDECKNKMNFPNGVTNGYSWYPLQGGMQDYNYIWAQCFEITLELSCCKYPREEKLPSFWNNNKASLIEYIKQVHLGVKGQVFDQNGNPLPNVIVEVQDRKHICPYRTNKYGEYYLLLLPGSYIINVTVPGHDPHITKVIIPEKSQNFSALKKDILLPFQGQLDSIPVSNPSCPMIPLYRNLPDHS
Carboxypeptidase concentration inducing 50% C-terminal A1PI truncation (A1PI [3]; 40% ethanol-pretreated purified A1PI): 50 mU/ml
Lys truncation of A1PI by carboxypeptidase (A1PI [3]): almost complete

B2: CPB: carboxypeptidase B, EC 3.4.17.2, small 35 kDa carboxypeptidase from pancreas (protein, UniProt P15086 111-417, looked up)
Carboxypeptidase B: ATGHSYEKYNKWETIEAWTQQVATENPALISRSVIGTTFEGRAIYLLKVGKAGQNKPAIFMDCGFHAREWISPAFCQWFVREAVRTYGREIQVTELLDKLDFYVLPVLNIDGYIYTWTKSRFWRKTRSTHTGSSCIGTDPNRNFDAGWCEIGASRNPCDETYCGPAAESEKETKALADFIRNKLSSIKAYLTIHSYSQMMIYPYSYAYKLGENNAELNALAKATVKELASLHGTKYTYGPGATTIYPAAGGSDDWAYDQGIRYSFTFELRDTGRYGFLLPESQIRATCEETFLAIKYVASYVLEHLY
Lys truncation of A1PI in dissolved IV-1 paste by carboxypeptidase (A1PI [4]): almost complete
Lys truncation of A1PI by carboxypeptidase (A1PI [3]): almost complete
C-terminal lys removal from A1PI by carboxypeptidase (A1PI [3]): completely truncate

B3: CPN: carboxypeptidase N, EC 3.4.17.3, basic carboxypeptidase of plasma (protein, UniProt P15169 21-458; P22792 22-545, looked up)
Carboxypeptidase N catalytic …: VTFRHHRYDDLVRTLYKVQNECPGITRVYSIGRSVEGRHLYVLEFSDHPGIHEPLEPEVKYVGNMHGNEALGRELMLQLSEFLCEEFRNRNQRIVQLIQDTRIHILPSMNPDGYEVAAAQGPNKPGYLVGRNNANGVDLNRNFPDLNTYIYYNEKYGGPNHHLPLPDNWKSQVEPETRAVIRWMHSFNFVLSANLHGGAVVANYPYDKSFEHRVRGVRRTASTPTPDDKLFQKLAKVYSYAHGWMFQGWNCGDYFPDGITNGASWYSLSKGMQDFNYLHTNCFEITLELSCDKFPPEEELQREWLGNREALIQFLEQVHQGIKGMVLDENYNNLANAVISVSGINHDVTSGDHGDYFRLLLPGIYTVSATAPGYDPETVTVTVGPAEPTLVNFHLKRSIPQVSPVRRAPSRRHGVRAKVQPQARKKEMEMRQLQRGPA
Carboxypeptidase N subunit 2: CPMGCDCFVQEVFCSDEELATVPLDIPPYTKNIIFVETSFTTLETRAFGSNPNLTKVVFLNTQLCQFRPDAFGGLPRLEDLEVTGSSFLNLSTNIFSNLTSLGKLTLNFNMLEALPEGLFQHLAALESLHLQGNQLQALPRRLFQPLTHLKTLNLAQNLLAQLPEELFHPLTSLQTLKLSNNALSGLPQGVFGKLGSLQELFLDSNNISELPPQVFSQLFCLERLWLQRNAITHLPLSIFASLGNLTFLSLQWNMLRVLPAGLFAHTPCLVGLSLTHNQLETVAEGTFAHLSNLRSLMLSYNAITHLPAGIFRDLEELVKLYLGSNNLTALHPALFQNLSKLELLSLSKNQLTTLPEGIFDTNYNLFNLALHGNPWQCDCHLAYLFNWLQQYTDRLLNIQTYCAGPAYLKGQVVPALNEKQLVCPVTRDHLGFQVTWPDESKAGGSWDLAVQERAARSQCTYSNPEGTVVLACDQAQCRWLNVQLSPQQGSLGLQYNASQEWDLRSSCGSLRLTVSIEARAAGP
Lys truncation of A1PI in dissolved IV-1 paste by carboxypeptidase (A1PI [4]): did not remove the C-terminal lysine
C-terminal lysines cleaved from purified uncleaved A1PI (A1PI [3]; 50 mU CPN/ml): 10-20%
Lys truncation of A1PI by carboxypeptidase (A1PI [3]): ~60%
C-terminal lys removal from A1PI by carboxypeptidase (A1PI [3]): slightly
